Molecular target: T1, rhVEGFR1-Fc (R&D Systems, Minneapolis, Minn.) (human, UniProt P17948-2 27-687, limits assumed)
T1 construct: It was captured on plates by an anti-Fc antibody; also called Flt-1; not shown: Fc part of the bought fusion
Assay: cell-free plate assay: rhVEGFR1-Fc captured by anti-Fc, VEGF165 titrated, Kd from the double reciprocal plot; heparin level not given
Description: Plates were washed five times with wash buffer (0.05% Tween-20 in PBS, pH 7.2-7.4) the next morning and blocked with blocking buffer (2% bovine serum albumin and 0.05% Tween-20 in PBS) for 1 hour at 37° C. […] Substrate reaction was stopped with 2N sulfuric acid and the signal was visualized with a FLUOstar Omega microplate reader (BMG Labtech, Cary, N.C.) at 450 nm.
All other outcomes were analyzed with analysis of variance.

T1 sequence (P17948 other isoform, or with tags, fused parts or gaps limits assumed): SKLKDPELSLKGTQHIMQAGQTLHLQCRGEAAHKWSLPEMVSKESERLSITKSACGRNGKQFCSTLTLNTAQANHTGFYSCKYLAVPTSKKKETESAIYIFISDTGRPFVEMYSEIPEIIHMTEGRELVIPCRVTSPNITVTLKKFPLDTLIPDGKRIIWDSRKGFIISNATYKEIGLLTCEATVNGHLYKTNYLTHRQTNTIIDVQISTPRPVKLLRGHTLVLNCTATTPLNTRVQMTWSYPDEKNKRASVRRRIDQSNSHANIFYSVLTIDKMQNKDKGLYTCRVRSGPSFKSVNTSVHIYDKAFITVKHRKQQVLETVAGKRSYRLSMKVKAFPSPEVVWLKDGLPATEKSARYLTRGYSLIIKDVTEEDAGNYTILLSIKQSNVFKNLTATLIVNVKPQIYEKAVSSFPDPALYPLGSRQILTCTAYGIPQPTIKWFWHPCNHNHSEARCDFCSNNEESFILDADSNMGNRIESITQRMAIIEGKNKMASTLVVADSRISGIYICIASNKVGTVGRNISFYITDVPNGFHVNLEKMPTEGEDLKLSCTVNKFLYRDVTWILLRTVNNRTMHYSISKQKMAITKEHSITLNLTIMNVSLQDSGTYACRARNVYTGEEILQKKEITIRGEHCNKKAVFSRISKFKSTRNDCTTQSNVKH

- Kd: 8.14 ng/mL
B1: rhVEGF-165 (Shire, Lexington, Mass.) (ligand)
chain: APMAEGGGQNHHEVVKFMDVYQRSYCHPIETLVDIFQEYPDEIEYIFKPSCVPLMRCGGCCNDEGLECVPTEESNITMQIMRIKPHQGQHIGEMSFLQHNKCECRPKKDRARQENPCGPCSERRKHLFVQDPQTCKCSCKNTDSRCKARQLELNERTCRCDKPRR

— patent publication US20200155648A1 (CHILDREN S MEDICAL CENTER, published 2020)
